Test results as given in patent US7732133B2, “Screening methods for biologically active ligands” (Chugai Seiyaku Kabushiki Kaisha, priority 2000, dated 2010).

Experiments:
[1] = molecular target: T1, chimeric IL-10 receptor (human IL-10Rα and IL-10Rβ / mouse G-CSF receptor) in Ba/F3 cell line 10G (Homo sapiens, UniProt Q08334+Q13651); test: Growth response of chimeric IL-10 receptor-expressing Ba/F3 cell line 10G (WST-8); format: cell-based; settings: 72 hours culture, WST-8 absorbance
T1 construct: from the 1st to the 235th amino acid residue; from the 1st to the 220th amino acid residues; expressed in transfected cells; host or cells: mouse Ba/F3 cells co-transfected with pCV-cIL10Rα and pCV-cIL10Rβ, clone 10G#10 = 10G
T1 sequence (Q13651 22-235): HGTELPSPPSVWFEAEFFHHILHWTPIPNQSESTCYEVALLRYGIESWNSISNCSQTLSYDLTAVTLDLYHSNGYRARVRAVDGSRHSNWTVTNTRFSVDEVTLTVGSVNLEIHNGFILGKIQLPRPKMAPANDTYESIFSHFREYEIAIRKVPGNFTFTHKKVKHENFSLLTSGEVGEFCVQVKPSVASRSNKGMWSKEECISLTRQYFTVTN
T1 sequence (Q08334 20-220): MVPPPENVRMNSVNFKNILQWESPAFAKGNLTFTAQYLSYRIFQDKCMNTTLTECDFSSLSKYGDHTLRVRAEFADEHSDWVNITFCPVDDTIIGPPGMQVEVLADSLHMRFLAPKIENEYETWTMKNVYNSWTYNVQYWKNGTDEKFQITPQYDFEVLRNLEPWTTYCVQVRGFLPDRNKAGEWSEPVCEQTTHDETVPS
T1 sequence (P40223 627-837 partner limits assumed): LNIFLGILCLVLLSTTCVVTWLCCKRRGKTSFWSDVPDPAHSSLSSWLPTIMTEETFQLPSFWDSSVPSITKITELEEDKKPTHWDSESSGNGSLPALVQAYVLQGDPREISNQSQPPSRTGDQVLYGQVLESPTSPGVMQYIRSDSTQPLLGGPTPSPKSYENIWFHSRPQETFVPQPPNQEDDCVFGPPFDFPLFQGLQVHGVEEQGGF
Description: Chimeric receptor cDNAs were constructed by linking cDNA fragments encoding the α chain (IL-10Rα) (from the 1st to the 235th amino acid residue; Liu, Y. et al. (1994) J. Immunol. 152, 1821-1829) and the hIL-10R subunit (CRFB4; IL-10Rβ) extracellular domain (from the 1st to the 220th amino acid residues; Lutfalla, G. et al. (1993) Genomics 16, 366-373) of human IL-10 receptor with the transmembrane and intracellular domains (from the 602nd to the 813th amino acid residues; Fukunaga, R. et al. (1990) Cell 61, 341-350) of mouse G-CSF receptor, respectively. […]
The cells were washed twice with Media A, and were suspended in Media A to give a cell density of 5×10^4 cells/mL. […] After the culture, 10 μL/well WST-8 reagent (Cell Count Reagent SF; Nacalai Tesque) was added, and pre-reaction absorbance at a measurement wavelength of 450 nm and a control wavelength of 655 nm was measured using microplate reader (Model 3550, Bio Rad). The plate was incubated for two hours in a CO2 incubator (CO2 concentration, 5%), and post-reaction absorbance was measured as above. […]

[2] = molecular target: T2, chimeric TPO receptor (human TPO receptor extracellular domain / mouse G-CSF receptor) in Ba/F3 cell line TPG (Homo sapiens, UniProt P40238); test: Growth response of chimeric TPO receptor-expressing Ba/F3 cell line TPG (WST-8); format: cell-based; settings: 72 hours culture, WST-8 absorbance
T2 construct: from the 1st to the 491st amino acid residues; expressed in transfected cells; host or cells: mouse Ba/F3 cells, clone TPG#219 = TPG
T2 sequence (P40238 26-491): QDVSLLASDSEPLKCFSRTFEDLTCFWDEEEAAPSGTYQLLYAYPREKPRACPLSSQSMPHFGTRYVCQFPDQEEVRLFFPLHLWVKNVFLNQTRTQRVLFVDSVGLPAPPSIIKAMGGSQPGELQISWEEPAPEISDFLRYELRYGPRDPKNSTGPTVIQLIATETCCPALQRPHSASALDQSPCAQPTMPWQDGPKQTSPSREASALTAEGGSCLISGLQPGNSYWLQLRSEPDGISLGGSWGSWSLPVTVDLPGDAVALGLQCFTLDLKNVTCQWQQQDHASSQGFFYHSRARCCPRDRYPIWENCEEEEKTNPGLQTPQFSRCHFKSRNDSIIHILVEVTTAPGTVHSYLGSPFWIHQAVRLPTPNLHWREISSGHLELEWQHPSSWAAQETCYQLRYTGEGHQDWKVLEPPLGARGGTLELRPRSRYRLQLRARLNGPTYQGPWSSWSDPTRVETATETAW
Description: A chimeric receptor cDNA was constructed by linking cDNA fragments encoding the extracellular domain (from the 1st to the 491st amino acid residues; Vigon, I. et al. (1992) Proc. Natl. Acad. Sci. USA 89, 5640-5644) of human TPO receptor, and the transmembrane and intracellular domains (from the 602nd to the 813th amino acid residues; Fukunaga, R. et al. (1990) Cell 61, 341-350) of mouse G-CSF receptor. The cDNA was inserted downstream of the EF1α promoter of the mammalian expression vector pCOS-G to construct chimeric receptor-expression vector TG/pCOS-G. TG/pCOS-G was linearized with Pvu I (Takara Shuzo), extracted with phenol and chloroform, and purified by ethanol precipitation.
The linearized expression gene vector was introduced into mouse Ba/F3 cells (purchased from RIKEN; Cell No.: RCB0805) using an electroporation apparatus (Gene Pulser: Bio Rad) The Ba/F3 cells were washed twice with Dulbecco's PBS (hereinafter referred to as PBS), and then were suspended in PBS to give a cell density of about 1×10^7 cells/mL. […]
The cells were washed twice with Media A, and were suspended in Media A to give a cell density of 5×10^4 cells/mL. […] The absorbance at a measurement wavelength of 450 nm and a control wavelength of 655 nm after the 2 hours incubation was measured using microplate reader (Model 3550, Bio Rad).

[3] = test system: mixed culture of cell lines GFG, EPG, TPG and parental Ba/F3; test: Cytokine responses in mixed and individual cell cultures (Example 2); format: cell-based, mouse; settings: mixed culture of four cell lines (each 4×10^3 cells/well), similar in individual cultures, 72 hours, WST-8; listed as hTPO
Experimental: Mixed culture of the cell lines GFG, EPG, and TPG, which express human G-CSF, EPO, and TPO chimeric receptors, respectively, and their parental cell line Ba/F3 was conducted and their response to various cytokines was examined.
The cells were washed twice with RPMI1640 media containing 2% fetal bovine serum, and then were suspended in RPMI1640 containing 10% fetal bovine serum. The four cell lines were mixed by adjusting each of the cell lines to 4×10^4 cells/mL (16×10^4 cells/mL in total) for the mixed culture, and, for individual cultures, cells were prepared at 4×10^4 cells/mL. 100 μL each of the cells were independently seeded on a 96-well microtiter plate (flat bottom, Falcon). After adding 100 μL/well each of appropriately diluted cytokines, the cultures were cultured for 72 hours in a CO2 incubator (5% CO2 concentration). After the culture, 10 μL/well WST-8 reagent (Cell Count Reagent SF; Nacalai Tesque) was added, and pre-reaction absorbance at a measurement wavelength of 450 nm and a control wavelength of 655 nm was measured using a microplate reader (Model 3550, Bio Rad). The plate was incubated for two hours in a CO2 incubator (CO2 concentration, 5%), and post-reaction absorbance was measured as above. Data were graphed out taking the cytokine concentrations on the horizontal axis and the amount of changes in absorbance after 2-hour incubation on the vertical axis (FIGS. 18, 19, and 20).

concentration at which an evident growth reaction was observed [1] [ng/mL]	concentration at which an evident growth reaction was observed [2] [pg/mL]	Substance	concentration where the response was observed to start [3] [pg/mL]
≥ 0.5	–	human IL-10: human interleukin 10 (Genzyme)	–
–	≥ 100	thrombopoietin [human TPO]	200
